Results reported in PMC5606203.

B1: PpND (Physcomitrium patens) (protein)
chain: MEGFQEEFSLGECLDVLTAAGLRTGDVKKRHLVHADGDYHRAVHVWLFVESTQELVLQKRADCKDSWPGLWDISSAGHISAGDTSLLTARRELQEELGITLPADAFEFLFDYLQECVINGGKYINNEYNDVYLVTLVDHIPVEAFTLQETEVSAVKYMKWQDYEDAVRKEDSSYVPCDVDGGYSALFSALRRRYEVDTSAKLEELQMHINRYVPVEIHGETTGLSKGDLLALSDTIRAAKLLDRIFLEQEWATNPALKDSLQAASGKSELDRLKFAYYLINKSPWSILDENDAFLTTADSAIQIAEGAVDESVTWGGKVRYRAAFPVEKAPGANFYPVDMDKEEFQAWKDGLDKGQQADATSFFTTIRRSGDIHDADGAKVHDLKIVPYSKEYATILKEASYLLHKAGDSAENPSLKRLLKAKADAFLSNDYYESDIAWMELDSPLDVTIGPYETYEDGLFGYKATFEAFIGIRDDEATQRLKLFSHNLQEMEDNLPMDDEYKSKTVTFSPIRVIQLLYNSGDVKGPQTVAFNLPNDDRIVKERGTAMVMLKNISQAKFDYILLPIANVCVEASQRGAVDFDSFFTHTICHECCHGIGPHNIVTPDGRASTVRLELQEVYSAIEEAKADIVGLWALHFLVDKGLLPRSLENTMYVSFLAGCFRSIRFGLEEAHGKGQALQFNFILEKGGFSYHPDGTFSVDYTKVRQCVEDLSRLILTIEAKGDKAGAEALLAKYAALTPQLQQSFDALQDVQVPVDIFPTFKLLDDIKL
B2: AtND (Arabidopsis thaliana) (protein)
chain: MAEEHFDVLTKSGEKTGVSKPRGEVHRDGDYHRAVHVWIFVETTQQLLLQLRSDDKDSWPGQWDISSAGHISAGDTSLLSAQRELEEELGVKLPKDAFEKIFVFLQECVTNDGKFINNEFNDVYLVTILHPIPLEAFTLQKEEVSAVKYVPYEEYRNFLSKEDPAYVPYDVNGEYGKLFDIIRQRCQVNTEARSLSLQKQLQRYSPVTLEAKLTELSEADQKALGLIVKAAKIMDDIFYEQVWNSNPALRDWLKDHANASKLDKLKWDYFTINKSPWSSLDENEAFLSTADSAVKLLPGATKAIAGWKGLEYRAAFPVTKPPGANFYPPDMDKMEFTLWLNGLTEEQKHAATGFFSVIKRRSEANLDASDHLASSTKKLPDSNSDLYSIPYSEIYRPFLKKASEFLQKAGDLVSSPSLKKLLHSKAEAFLSNEYYESDIAWMDLDSKLDITIGPYETYEDEIFGYKATFETFIGIRDDKATADLKLFGDNLKLLEDNLPLESVYKSTDVSAAPIRVIQLIYNSGDVKGPQTVAYNLPNDEKIVKDRGTSMVMLKNVQEAKFEHILKPIAEITISKEQRGLVDFDSFFTHTICHECCHGIGPHTITLPGGQTSTVRKELQEVHSAMEEAKADIVGLWALKFLITKGLLSKSMVESMYVSFLAGCFRSIRFGLTEAHGKGQALQFNYLYEKGAFVFHEDSTFSVDFAKIEGAVESLSHEILTIQGKGDKNAATLLLNKYCTITGPLKTALENLERVKVPVDISPTFPLAEALMN

Assays:
Assay in all cases: initial rates, colorimetric 2-naphthylamide release
[1] = substrate: C[C@H](N)C(=O)N[C@@H](CCCNC(=N)N)C(=O)Nc1ccc2ccccc2c1; format: biochemical, Physcomitrium patens; details: 25 °C, pH 7.4, Tris-HCl (I = 0.01), 75 µM CoCl2, DPP III site
[2] = substrate: N=C(N)NCCC[C@H](NC(=O)[C@@H](N)CCCNC(=N)N)C(=O)Nc1ccc2ccccc2c1; format: biochemical, Physcomitrium patens; details: 25 °C, pH 7.4, Tris-HCl (I = 0.01), 75 µM CoCl2, DPP III site
[3] = substrate: N=C(N)NCCC[C@H](NC(=O)[C@@H]1CCCN1)C(=O)Nc1ccc2ccccc2c1; format: biochemical, Arabidopsis thaliana; details: 25 °C, pH 7.9, Tris-HCl (I = 0.01), 75 µM CoCl2, DPP III site
[4] = substrate: C[C@H](N)C(=O)N[C@@H](CCCNC(=N)N)C(=O)Nc1ccc2ccccc2c1; format: biochemical, Arabidopsis thaliana; details: 25 °C, pH 7.9, Tris-HCl (I = 0.01), 75 µM CoCl2, DPP III site
[5] = substrate: N=C(N)NCCC[C@H](NC(=O)[C@@H](N)CCCNC(=N)N)C(=O)Nc1ccc2ccccc2c1; format: biochemical, Arabidopsis thaliana; details: 25 °C, pH 7.9, Tris-HCl (I = 0.01), 75 µM CoCl2, DPP III site

Protein	Km [1] [µM]	kcat [1] [s⁻¹]	Km [2] [µM]	kcat [2] [s⁻¹]	Km [3] [µM]	kcat [3] [s⁻¹]	kcat/Km [3] [M⁻¹ s⁻¹]	Km [4] [µM]	kcat [4] [s⁻¹]	kcat/Km [4] [M⁻¹ s⁻¹]	Km [5] [µM]	kcat [5] [s⁻¹]	kcat/Km [5] [M⁻¹ s⁻¹]
B1	17.21 ± 0.75	0.0106 ± 0.00262	10.63 ± 1.72	0.0137 ± 0.003									
B2					40.85 ± 12.09	0.0372 ± 0.005	908	5.0 ± 0.3	0.0415 ± 0.0035	8300	3.25 ± 1.12	0.002 ± 1.67e-05	615
